According to US20200325209A1:

Columns and labels:
[1] = target: human neonatal Fc receptor FcRn/β2m, soluble recombinant (human) (UniProt P55899); assay: flow cytometry, labelled FcRn on CHO-displayed HSA, pH 5.5
[2] = target: human neonatal Fc receptor FcRn/β2m, soluble recombinant (human) (UniProt P55899); assay: flow cytometry, labelled FcRn on CHO-displayed HSA, pH 7.4

Substance	mean geoMFI [1]	mean geoMFI [2]
HSA [G572D], membrane-tethered on CHO cells (from UniProt P02768 25-609)	305	32.7
HSA [G572N], membrane-tethered on CHO cells (from UniProt P02768 25-609)	85.8	36.4
HSA [G572P], membrane-tethered on CHO cells (from UniProt P02768 25-609)	216	30.6
HSA [G572Q], membrane-tethered on CHO cells (from UniProt P02768 25-609)	201	–
HSA [G572V], membrane-tethered on CHO cells (from UniProt P02768 25-609)	58.2	20.7
HSA [Q522A], membrane-tethered on CHO cells (from UniProt P02768 25-609)	–	17.8
HSA [Q522D], membrane-tethered on CHO cells (from UniProt P02768 25-609)	317	22.4
HSA [Q522E], membrane-tethered on CHO cells (from UniProt P02768 25-609)	128	29.2
HSA [Q522H], membrane-tethered on CHO cells (from UniProt P02768 25-609)	–	27.2

Results, then the substance that gave them:

mean geoMFI [1]	mean geoMFI [2]	Substance
–	31.4	HSA [Q522N], membrane-tethered on CHO cells (from UniProt P02768 25-609)
–	29.4	HSA [Q522P], membrane-tethered on CHO cells (from UniProt P02768 25-609)
386	17.8	HSA [Q522R], membrane-tethered on CHO cells (from UniProt P02768 25-609)
258	32.7	HSA [Q522S], membrane-tethered on CHO cells (from UniProt P02768 25-609)
290	28.3	HSA [Q522T], membrane-tethered on CHO cells (from UniProt P02768 25-609)
